Residue numbers refer to the chain shown, from its start. Numbers in names are those of the source.
T1: His:Smurf protein (full length Drosophila Smurf) (Drosophila, UniProt Q9V853 1-1061)
T1 construct: Smurf E3 ligase, Drosophila, full length; Vector pET28a; also called Smurf in pET28a; source: E. coli, purified (Ni Sepharose)
T1 sequence (looked up): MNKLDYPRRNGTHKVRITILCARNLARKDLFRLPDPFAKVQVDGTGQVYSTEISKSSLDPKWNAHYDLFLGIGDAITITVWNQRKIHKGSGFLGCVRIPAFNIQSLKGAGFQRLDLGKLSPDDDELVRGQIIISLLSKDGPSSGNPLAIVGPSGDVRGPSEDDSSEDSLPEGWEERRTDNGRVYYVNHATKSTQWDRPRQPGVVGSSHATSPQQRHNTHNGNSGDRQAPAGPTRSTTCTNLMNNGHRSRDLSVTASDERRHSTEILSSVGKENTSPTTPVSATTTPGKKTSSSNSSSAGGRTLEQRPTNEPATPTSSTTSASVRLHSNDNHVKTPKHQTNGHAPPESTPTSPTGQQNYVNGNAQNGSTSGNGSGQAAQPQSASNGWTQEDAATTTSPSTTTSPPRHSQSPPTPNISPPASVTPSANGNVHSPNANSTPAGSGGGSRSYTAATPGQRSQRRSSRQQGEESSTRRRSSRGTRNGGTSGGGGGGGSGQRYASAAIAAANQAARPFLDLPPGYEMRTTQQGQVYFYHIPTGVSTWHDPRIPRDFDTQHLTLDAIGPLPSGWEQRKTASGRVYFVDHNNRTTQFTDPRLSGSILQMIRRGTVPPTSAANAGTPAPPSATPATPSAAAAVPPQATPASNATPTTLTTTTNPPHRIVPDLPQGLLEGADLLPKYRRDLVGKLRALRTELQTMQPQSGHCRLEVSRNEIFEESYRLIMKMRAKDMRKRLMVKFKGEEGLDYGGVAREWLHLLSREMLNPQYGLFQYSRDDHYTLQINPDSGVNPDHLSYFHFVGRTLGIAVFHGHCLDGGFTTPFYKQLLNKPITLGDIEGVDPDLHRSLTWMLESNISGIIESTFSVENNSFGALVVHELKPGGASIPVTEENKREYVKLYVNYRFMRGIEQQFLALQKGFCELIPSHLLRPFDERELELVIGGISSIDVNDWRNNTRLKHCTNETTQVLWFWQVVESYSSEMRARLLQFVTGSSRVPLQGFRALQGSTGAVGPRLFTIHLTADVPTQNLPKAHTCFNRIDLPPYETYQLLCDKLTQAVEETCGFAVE

B1: Ptc^CTD (C-terminal tail of Ptc) expressed in S2 cells (domain or fragment, Drosophila, UniProt P18502 1101-1286, looked up)
chain: ILLSMVGPEAELVPLEHPDRISTPSPLPVRSSKRSGKSYVVQGSRSSRGSCQKSHHHHHKDLNDPSLTTITEEPQSWKSSNSSIQMPNDWTYQPREQRPASYAAPPPAYHKAAAQQHHQHQGPPTTPPPPFPTAYPPELQSIVVQPEVTVETTHSDSNTTKVTATANIKVELAMPGRAVRSYNFTS
notes: Patched (Ptc), Drosophila, C-terminal tail; also called C-tail of Ptc; Ptc C-tail; source: S2 cells, transfected, in lysate
B2: Ptc^CTD with the K1261R mutation, in S2 cells (domain or fragment, Drosophila, UniProt P18502 1101-1286, looked up)
chain: B1 chain with K161R
notes: Patched (Ptc), Drosophila, C-terminal domain with K1261R; source: S2 cells, transfected, in lysate
B3: GST:Flag:Ptc^CTD fusion protein (domain or fragment, Drosophila, UniProt P18502 1101-1286, looked up)
chain: B1 chain
notes: Patched (Ptc), Drosophila, C-terminal domain, residues 1101-1286; Vector pGEX4T-1; also called Flag tagged Ptc^CTD (1101-1286 a.a) in pGEX4T-1; source: E. coli, purified (glutathione agarose beads, batch)

What was measured:
[1] = biological target: the molecule itself; test: native gel or EMSA; lysates of S2 cells transfected for 48 h; native polyacrylamide gel and Western blot
[2] = biological target: T1, His:Smurf protein (full length …); test: pull-down; GST fusion protein loaded glutathione beads incubated with 200 ng purified His:Smurf; 50 mM Tris-Cl pH 8.0, 200 mM NaCl, 1 mM EDTA, 1% NP-40, 2% BSA, 10 mM DTT, 1 mM PMSF; 4°C, 1 h; Western blot; settings: both partners purified

Row | Binder | stoichiometry N [1] | binding result [2]
1 | B1 | 3 | –
2 | B2 | 3 | –
3 | B3 | – | binds

From article PMC3841102, “Activation of Smurf E3 Ligase Promoted by Smoothened Regulates Hedgehog Signaling through Targeting Patched Turnover” (PLoS Biology, 2013)
